{
  "source": "patent US20200199533A1",
  "about": "(KING ABDULLAH UNIVERSITY OF SCIENCE AND TECHNOLOGY, published 2020)",
  "molecules": {"B1": {"name": "CD34, native glycoprotein from human HSPCs (KG1a, CD34^pos-BM, CD34^pos-UCB, CD34^pos-AML) (ligand, UniProt P28906 32-385, looked up)", "chain": "SLDNNGTATPELPTQGTFSNVSTNVSYQETTTPSTLGSTSLHPVSQHGNEATTNITETTVKFTSTSVITSVYGNTNSSVQSQTSVISTVFTTPANVSTPETTLKPSLSPGNVSDLSTTSTSLATSPTKPYTSSSPILSDIKAEIKCSGIREVKLTQGICLEQNKTSSCAEFKKDRGEGLARVLCGEEQADADAGAQVCSLLLAQSEVRPQCLLLVLANRTEISSKLQLMKKHQSDLKKLGILDFTEQDVASHQSYSQKTLIALVTSGALLAVLGITGYFLMNRRSWSPTGERLGEDPYYTENGGGQGYSSGPGTSPEAQGKASVNRGAQENGTGQATSRNGHSARQHVVADTEL", "modifications": "native glycosylation (about 120-130 kDa form); sialylated O-glycans and tyrosine sulfation are shown to matter for selectin binding", "notes": "mature; also called E-selL CD34"}},
  "key": {"[1]": {"target": "CD34, native glycoprotein from human HSPCs (KG1a, CD34^pos-BM, CD34^pos-UCB, CD34^pos-AML) (human) (UniProt P28906)", "test": "Stamper-Woodruff assay, CHO-E cells on CD34 immunoprecipitate from KG1a"}, "[2]": {"target": "CD34, native glycoprotein from human HSPCs (KG1a, CD34^pos-BM, CD34^pos-UCB, CD34^pos-AML) (human) (UniProt P28906)", "test": "Stamper-Woodruff assay, CHO-E cells on CD34 immunoprecipitate from CD34^pos-BM"}, "[3]": {"target": "CD34, PNGaseF-treated (human) (UniProt P28906)", "test": "SPR; CD34 captured on 4H11 from PNGaseF-treated KG1a lysate; koff-apparent similar to the control"}, "[4]": {"target": "CD34, native glycoprotein from human HSPCs (KG1a, CD34^pos-BM, CD34^pos-UCB, CD34^pos-AML) (human) (UniProt P28906)", "test": "Stamper-Woodruff assay, CHO-P cells on CD34 immunoprecipitate from CD34^pos-BM"}, "[5]": {"target": "CD34, native glycoprotein from human HSPCs (KG1a, CD34^pos-BM, CD34^pos-UCB, CD34^pos-AML) (human) (UniProt P28906)", "test": "Stamper-Woodruff assay, CHO-P cells on CD34 immunoprecipitate from KG1a"}, "[6]": {"target": "CD44 (HCELL), native glycoprotein from human HSPCs (KG1a, CD34^pos fraction) (human) (UniProt P16070)", "sequence (P16070 21-742)": "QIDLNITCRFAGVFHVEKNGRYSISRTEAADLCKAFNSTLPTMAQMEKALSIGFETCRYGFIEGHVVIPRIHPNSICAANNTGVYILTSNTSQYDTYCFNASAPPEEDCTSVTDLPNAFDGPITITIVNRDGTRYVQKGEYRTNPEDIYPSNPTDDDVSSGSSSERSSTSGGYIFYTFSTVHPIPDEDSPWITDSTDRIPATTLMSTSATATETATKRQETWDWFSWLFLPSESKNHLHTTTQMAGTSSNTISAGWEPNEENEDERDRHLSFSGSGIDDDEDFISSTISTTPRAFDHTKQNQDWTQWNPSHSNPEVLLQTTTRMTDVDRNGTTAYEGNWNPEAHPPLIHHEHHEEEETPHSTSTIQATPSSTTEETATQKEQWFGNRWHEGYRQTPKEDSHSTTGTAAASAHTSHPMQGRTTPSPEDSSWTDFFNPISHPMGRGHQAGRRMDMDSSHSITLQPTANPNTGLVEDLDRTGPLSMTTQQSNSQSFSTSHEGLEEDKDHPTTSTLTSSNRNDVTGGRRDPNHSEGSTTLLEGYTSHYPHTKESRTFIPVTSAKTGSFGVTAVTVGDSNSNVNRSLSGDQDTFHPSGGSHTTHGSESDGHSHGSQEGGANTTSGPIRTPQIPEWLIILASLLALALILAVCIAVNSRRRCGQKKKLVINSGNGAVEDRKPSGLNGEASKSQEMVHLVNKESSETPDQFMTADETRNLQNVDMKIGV", "test": "SPR, dissociation of captured CD44 from immobilized Hermes-3 during the wash after the lysate injection, s^-1 as in paragraph 58; fits the 8.6-fold ratio of paragraph 58"}, "[7]": {"target": "CD44 (HCELL), native glycoprotein from human HSPCs (KG1a, CD34^pos fraction) (human) (UniProt P16070)", "test": "SPR, capture of CD44 from KG1a lysate on immobilized Hermes-3, before normalization"}, "[8]": {"target": "CD44 (HCELL), native glycoprotein from human HSPCs (KG1a, CD34^pos fraction) (human) (UniProt P16070)", "test": "SPR, capture of CD44 from KG1a lysate on immobilized Hermes-3, estimated from Equation 1"}, "[9]": {"target": "T1, PSGL-1, native glycoprotein from human HSPCs (KG1a, CD34^pos-BM) (human, UniProt Q14242 42-412, native glycosylation and tyrosine sulfation)", "T1 construct": "mature; also called P-selectin glycoprotein ligand-1", "T1 sequence (looked up)": "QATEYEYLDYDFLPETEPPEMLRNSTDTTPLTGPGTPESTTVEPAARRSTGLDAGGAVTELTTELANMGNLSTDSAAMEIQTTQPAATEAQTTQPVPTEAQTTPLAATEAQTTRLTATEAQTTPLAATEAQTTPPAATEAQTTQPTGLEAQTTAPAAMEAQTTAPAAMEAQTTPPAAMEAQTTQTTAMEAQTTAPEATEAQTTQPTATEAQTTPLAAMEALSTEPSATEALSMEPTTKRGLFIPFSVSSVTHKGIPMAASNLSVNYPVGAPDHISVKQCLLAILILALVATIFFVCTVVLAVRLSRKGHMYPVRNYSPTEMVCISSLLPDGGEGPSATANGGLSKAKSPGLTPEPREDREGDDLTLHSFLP", "test": "SPR; PSGL-1 captured from KG1a lysate on KPL-1-mAb; apparent association rate"}, "[10]": {"target": "T1, PSGL-1, native glycoprotein from human …", "test": "SPR; PSGL-1 captured from KG1a lysate on KPL-1-mAb, P-Ig injected, 2 mM CaCl2, 25 C; steady-state model; mean"}, "[11]": {"target": "T1, PSGL-1, native glycoprotein from human …", "test": "SPR; PSGL-1 captured from KG1a lysate on KPL-1-mAb; apparent rate constant; exponent printed as 10^4, read as 10^-4"}, "[12]": {"target": "T1, PSGL-1, native glycoprotein from human …", "test": "SPR, steady-state fit of consecutive P-Ig injections (labels 5.6 to 1000 under the steps) in CaCl2 over PSGL-1 captured from KG1a lysate on KPL-1-mAb, 150 mM NaCl; the run shown; no rise in the P-Ig/EDTA step"}, "[13]": {"target": "B1", "test": "SPR, steady-state fit of consecutive P-Ig injections (labels 5.6 to 1000 under the steps) in CaCl2 over CD34 captured from KG1a lysate on 563-mAb, 150 mM NaCl; the run shown; no rise in the P-Ig/EDTA step"}, "[14]": {"target": "B1", "test": "SPR; CD34 captured from KG1a lysate on 563-mAb; apparent rate constant"}, "[15]": {"target": "B1", "test": "SPR; CD34 captured from KG1a lysate on 563-mAb; apparent association rate"}, "[16]": {"target": "B1", "test": "SPR; CD34 captured on 563-mAb against PSGL-1 captured on KPL-1-mAb"}, "[17]": {"target": "B1", "test": "SPR; CD34 captured from KG1a lysate on 563-mAb, P-Ig injected, 2 mM CaCl2, 25 C; steady-state model; mean"}, "[18]": {"target": "T1, PSGL-1, native glycoprotein from human …", "test": "CD34 immunoprecipitation, Western blot for PSGL-1 (KPL-1-mAb)", "from_the_text": "FIG. 7A is an autoradiograph of Western blots of P-Ig immunoprecipitates from KG1a and CD34^pos-BM lysates probing for CD34 (QBend-10 and EP373Y mAb) or PSGL-1 using KPL-1-mAb. Note that CD34 immunoprecipitates were free from any PSGL-1 contamination. (n=3 independent experiment). FIG. 7B is an autoradiograph of Western blots of CD34 and PSGL-1 immunoprecipitates probed with P-Ig (n=3). FIG. 7C is an autoradiograph of Western blots of E-Ig immunoprecipitates of E-sels from KG1 lysate that were eluted with 30 mM EDTA. The eluate was then immunoprecipitated with CD34-mAbs (4H11 and 581) prior to Western blot analysis with CD34, E-Ig, and P-Ig (n=2 independent experiments). FIG. 7D is a bar graph of Bound cells/field for adherent CHO-P cells. CD34 immunoprecipitates were prepared from CD34^pos-BM and KG1a lysates and spotted on glass slides to test for CHO-P binding using a Stamper-Woodruff assay. n=2 independent experiments. FIG. 7E is a bar graph of # of rolling cells per field showing Adhesion bar graph representing results obtained for the blot-rolling assay using CHO-P cell rolling at 0.25 dyne/cm² (rolling cells/field) over Western blots of immunoprecipitated CD34, CD44, CD43, or PSGL-1 from KG1a cell lysates. EDTA was used as a buffer (gray bars) or CHO-M cells (white bars). […] The resulting proteins were analyzed by Western blot for P-Ig binding."}},
  "data": [
    {"molecule": "E-selectin expressed on CHO-E cells (receptor)", "values": [
      {"measurement": "bound cells (bound cells/field)", "setting": "[1]", "value": 26},
      {"measurement": "bound cells (bound cells/field)", "setting": "[2]", "value": 14}
    ]},
    {"molecule": "recombinant E-selectin human immunoglobulin chimeric protein (Fc fusion)", "values": [
      {"measurement": "fold reduction in RUmax against the control lysate", "setting": "[3]", "value": 1.4, "unit": "fold"}
    ]},
    {"molecule": "P-selectin expressed on CHO-P cells (receptor)", "values": [
      {"measurement": "bound cells per field (bound cells per field)", "setting": "[4]", "value": 8},
      {"measurement": "bound cells per field (bound cells per field)", "setting": "[5]", "value": 41}
    ]},
    {"molecule": "CD44-mAb Hermes-3 (antibody)", "values": [
      {"measurement": "koff", "setting": "[6]", "value": "5e-05", "unit": "s⁻¹"},
      {"measurement": "RUmax at the end of the lysate injection", "setting": "[7]", "value": 559, "unit": "RU"},
      {"measurement": "ligand-capturing efficiency", "setting": "[8]", "value": 20.2, "unit": "%"}
    ]},
    {"molecule": "Recombinant P-selectin human immunoglobulin chimeric protein (Fc fusion) WTYHYSTKAYSWNISRKYCQNRYTDLVAIQNKNEIDYLNKVLPYYSSYYWIGIRKNNKTWTWVGTKKALTNEAENWADNEPNNKRNNEDCVEIYIKSPSAPGKWNDEHCLKKKHALCYTASCQDMSCSKQGECLETIGNYTCSCYPGFYGPECEYVRECGELELPQHVLMNCSHPLGNFSFNSQCSFHCTDGYQVNGPSKLECLASGIWTNKPPQCLAAQCPPLKIPERGNMTCLHSAKAFQHQSSCSFSCEEGFALVGPEVVQCTASGVWTAPAPVCKAVQCQHLEAPSEGTMDCVHPLTAFAYGSSCKFECQPGYRVRGLDMLRCIDSGHWSAPLPTCEAISCEPLESPVHGSMDCSPSLRAFQYDTNCSFRCAEGFMLRGADIVRCDNLGQWTAPAPVCQALQCQDLPVPNEARVNCSHPFGAFRYQSVCSFTCNEGLLLVGASVLQCLATGNWNSVPPECQAIPCTPLLSPQNGTMTCVQPLGSSSYKSTCQFICDEGYSLSGPERLDCTRSGRWTDSPPMCEAIKCPELFAPEQGSLDCSDTRGEFNVGSTCHFSCDNGFKLEGPNNVECTTSGRWSATPPTCKGIASLPTPGVQCPALTTPGQGTMYCRHHPGTFGFNTTCYFGCNAGFTLIGDSTLSCRPSGQWTAVTPACRAVKCSELHVNKPIAMNCSNLWGNFSYGSICSFHCLEGQLLNGSAQTACQENGHWSTTVPTCQAGPLTIQEA", "values": [
      {"measurement": "kon", "setting": "[9]", "value": 474, "unit": "M⁻¹ s⁻¹"},
      {"measurement": "Kd", "setting": "[10]", "value": 372, "unit": "nM"},
      {"measurement": "koff", "setting": "[11]", "value": 0.0002, "unit": "s⁻¹"},
      {"measurement": "Kd", "setting": "[12]", "value": "~373", "unit": "nM"},
      {"measurement": "Kd", "setting": "[13]", "value": "~622", "unit": "nM"},
      {"measurement": "koff", "setting": "[14]", "value": 0.0003, "unit": "s⁻¹"},
      {"measurement": "kon", "setting": "[15]", "value": 452, "unit": "M⁻¹ s⁻¹"},
      {"measurement": "fold weaker KD than P-Ig to PSGL-1", "setting": "[16]", "value": "~1.7", "unit": "fold"},
      {"measurement": "Kd", "setting": "[17]", "value": 621, "unit": "nM"}
    ]},
    {"molecule": "B1", "values": [
      {"measurement": "binding result", "setting": "[18]", "value": "no binding"}
    ]}
  ]
}
